Results on three substances are retold here after PMC3814370, “Functional assignment of KEOPS/EKC complex subunits in the biosynthesis of the universal t^6A tRNA modification” (Nucleic Acids Research, 2013).

Data set [1] has as its target Pcc1–Kae1 binary complex from Pyrococcus abyssi (Pyrococcus abyssi) (UniProt Q9V1Z9).
Data set [2] deals with Kae1-Bud32 (Pyrococcus abyssi). The data set is described as follows: EMSA. To be noted: apparent Kd; retarded bands from 50 nM; EMSA: 10 nM 32P-tRNA, 20 µl binding buffer BB (composition not in material), 15 min at 4 C (Figure 7 legend: room temperature), 10% native gel in 1X TGE at 4 C. A general note: A gel shift assay detects complexes by their altered migration in electrophoresis.

Chain of Pcc1–Kae1 binary complex from Pyrococcus abyssi (Pyrococcus abyssi) (Q9V1Z9 whole entry, chain 1 of 2): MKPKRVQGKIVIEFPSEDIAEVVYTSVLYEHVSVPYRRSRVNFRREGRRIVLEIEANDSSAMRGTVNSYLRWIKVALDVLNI
Chain of Pcc1–Kae1 binary complex from Pyrococcus abyssi (Pyrococcus abyssi) (Q9UXT7 whole entry, chain 2 of 2, further chain): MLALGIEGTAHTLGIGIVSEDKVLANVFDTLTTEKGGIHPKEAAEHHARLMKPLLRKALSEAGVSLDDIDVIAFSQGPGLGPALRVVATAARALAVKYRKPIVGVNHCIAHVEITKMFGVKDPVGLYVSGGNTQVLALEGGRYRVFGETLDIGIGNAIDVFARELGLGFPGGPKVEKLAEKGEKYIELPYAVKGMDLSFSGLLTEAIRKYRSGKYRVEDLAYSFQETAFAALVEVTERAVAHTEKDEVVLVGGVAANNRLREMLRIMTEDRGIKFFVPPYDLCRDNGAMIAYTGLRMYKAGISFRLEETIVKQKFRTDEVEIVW

Regarding “Kae1–Bud32 binary complex from Pyrococcus abyssi (from UniProt Q9UXT7 1-324; Q9UYB9 1-220)”, the t^6A synthesis (14C-L-threonine incorporated into tRNA) by a mix of the two binary complexes, relative to PaKEOPS in data set [1] was 30%.

With “Kae1–Bud32–Cgi121 ternary complex from Pyrococcus abyssi (from UniProt Q9UXT7 1-324; Q9UYB9 1-220; Q9UZ62 1-171)”, the t^6A synthesis (14C-L-threonine incorporated into tRNA) after adding Pcc1–Kae1 to the ternary complex, relative to PaKEOPS in data set [1] amounted to 36%.

substrate tRNA (probably Ec_tRNALys): the Kd in data set [2] turned out to be 2000 nM.
